Test results as given in patent US20240034813A1 (Janssen / Centocor, published 2024).

Tests used:
[1] = biological target: T1, recombinant cMet/HGFR with c-terminal His-tag, Cy5-labeled (UniProt P08581 25-932, limits assumed, Cy5 label (reacted with Cy5 Mono NHS Ester; sites not stated)); test: competitive TR-FRET (Eu-amivantamab/Cy5-c-MET), EC50 ratio vs Reference Material; Ex. 2 Formulation 3 (acetate), T0, 25 C table
T1 construct: Commercial protein; also called Cy5-c-MET; Cy5-labeled c-MET antigen; not shown: C-terminal His-tag
Source text: (§1) In this procedure, varying concentrations of unlabeled bispecific EGFR-cMet antibody sample compete with donor fluorophore (Europium (Eu) chelate) labeled bispecific EGFR-cMet antibody for binding to an acceptor fluorophore (Cy5)-labeled c-MET antigen. Excitation of the donor fluorophore results in a transfer of energy to the bound acceptor fluorophore (FRET process). The resultant FRET is detected by emission of light at 665 nm using a microplate reader capable of measuring time-resolved fluorescence. Sample dose response curves are compared to the Reference Material (RM).
(§2) c-MET Binding Materials and Methods. Certified commercial cMet, a recombinant cMet/HGFR with c-terminal His-tag is reacted with certified commercial Cy5 Mono NHS Ester to produce Cy5-labeled c-MET. Validated bispecific EGFR-cMet antibody is reacted with certified commercial Europium (Eu) chelate to produce Eu labeled bispecific EGFR-cMet antibody. […] Fluorescence is then measured by spectrophotometry at 665 nm, plotted against antibody concentration and analyzed by a four-parameter logistic model. The antibody concentration required to obtain half of the maximum fluorescence response (EC50) is determined for RM, assay control and samples. The potencies of assay control and samples are calculated based on the ratio of the sample (or control) and RM EC50 values and reported as a percentage activity relative to the RM.

[2] = biological target: T1, recombinant cMet/HGFR with c-terminal …; test: competitive TR-FRET (Eu-amivantamab/Cy5-c-MET), EC50 ratio vs Reference Material; Ex. 12 drug product with rHuPH20, 6 months at 25 C
Source text: as §1, §2

[3] = biological target: T2, recombinant human EGFR/ErbB1/HER1 with C-terminal His tag, Cy5-labeled (human, UniProt P00533 25-645, Cy5 label (reacted with Cy5 Mono NHS Ester; sites not stated)); test: competitive TR-FRET (Eu-amivantamab/Cy5-EGFR), EC50 ratio vs Reference Material; Ex. 2 Formulation 1 (10 mM histidine), 3 months at 25 C
T2 construct: Commercial protein; also called Cy5-EGFR; Cy5-labeled EGFR antigen; not shown: C-terminal His tag
Source text: as §1, with “EGFR” for “c-MET”, “RM.” for “Reference Material (RM).”
as §2, with “EGFR” for “c-MET”, “EGFR,” for “cMet,”, “human EGFR/ErbB1/HER1” for “cMet/HGFR”, “C-terminal His tag” for “c-terminal His-tag”, “EGFR.” for “c-MET.”, “Eu-labeled” for “Eu labeled”

[4] = biological target: T1, recombinant cMet/HGFR with c-terminal …; test: competitive TR-FRET (Eu-amivantamab/Cy5-c-MET), EC50 ratio vs Reference Material; Ex. 12 drug product with rHuPH20, 0 months, 5 C table
Source text: as §1, §2

[5] = biological target: T1, recombinant cMet/HGFR with c-terminal …; test: competitive TR-FRET (Eu-amivantamab/Cy5-c-MET), EC50 ratio vs Reference Material; Ex. 2 Formulation 1 (10 mM histidine), T0, 5 C table
Source text: as §1, §2

[6] = biological target: T1, recombinant cMet/HGFR with c-terminal …; test: competitive TR-FRET (Eu-amivantamab/Cy5-c-MET), EC50 ratio vs Reference Material; Ex. 2 Formulation 2 (50 mM histidine), 3 months at 40 C
Source text: as §1, §2

[7] = biological target: T1, recombinant cMet/HGFR with c-terminal …; test: competitive TR-FRET (Eu-amivantamab/Cy5-c-MET), EC50 ratio vs Reference Material; Ex. 12 drug product with rHuPH20, 3 months at 40 C
Source text: as §1, §2

[8] = biological target: T1, recombinant cMet/HGFR with c-terminal …; test: competitive TR-FRET (Eu-amivantamab/Cy5-c-MET), EC50 ratio vs Reference Material; Ex. 2 Formulation 2 (50 mM histidine), 1 month at 40 C
Source text: as §1, §2

cMET Binding % activity relative to RM [1]: 94%
cMET Binding activity relative to Reference Material (%) [2]: 103%
EGFR Binding % activity relative to RM [3]: 100%
cMET Binding activity relative to Reference Material (%) [4]: 91%
cMET Binding % activity relative to RM [5]: 87%
cMET Binding % activity relative to RM [6]: 77%
cMET Binding activity relative to Reference Material (%) [7]: 68%
cMET Binding % activity relative to RM [8]: 90%
B1: amivantamab (bispecific antibody, human IgG1, kappa)
heavy 1: not shown
light 1: not shown
heavy 2: not shown
light 2: DIQMTQSPSSVSASVGDRVTITCRASQGISNWLAWFQHKPGKAPKLLIYAASSLLSGVPSRFSGSGSGTDFTLTISSLQPEDFATYYCQQANSFPITFGQGTRLEIKRTVAAPSVFIFPPSDEQLKSGTASVVCLLNNFYPREAKVQWKVDNALQSGNSQESVTEQDSKDSTYSLSSTLTLSKADYEKHKVYACEVTHQGLSSPVTKSFNRGEC
notes: The samples tested were high concentration (160 mg/mL) formulations, fresh or stored or stressed; also called JNJ-61186372; bispecific EGFR-cMet antibody
